The results in this text go back to article PMC11398520 (bioRxiv, 2024).

The target in data set [1] is PS2 S-layer protein of Corynebacterium glutamicum (ex-vivo S-layer) (Corynebacterium glutamicum). As to the kind of experiment: cryo-EM structure.
The data set “negative-stain EM” deals with the molecule itself. As to the kind of experiment: negative-stain EM.

The term stoichiometry N denotes a count of units in the complex or per binding partner. With “PS2 S-layer protein of Corynebacterium glutamicum (ex-vivo S-layer) (natural protein)”, the stoichiometry N in data set [1] is 6.

B1: PS2 assembly domain (PS2^AD; residues 30 to 483) (domain or fragment)
chain: AQETNPTFNITNGFNDADGSTIQPVGPVNHTEETLRDLTDSTGAYLEEFQNGTVEEIVEAYLQVQASADGFDPSEQAAYEAFEAARVRASQELAASAETITKTRESVAYALKVDQEATAAFEAYRNALRDAAISINPDGSINPDTSINLLIDAANAANRTDRAEIEDYAHLYTQTDIALETPQLAYAFQDLKALQAEVDADFEWLGEFGIDQEDGNYVQRYHLPAVEALKAEVDARVAAIEPLRADSIAKNLEAQKSDVLVRQLFLERATAQRDTLRVVEAIFSTSARYVELYENVENVNVENKTLRQHYSALIPNLFIAAVANISELNAADAEAAAYYLHWDTDLATNDEDEAYYKAKLDFAIETYAKILFNGEVWQEPLAYVQNLDAGARQEAADREAARAADEAYRAEQLRIAQEAADAQKAIAEALAKEAEGNNDNSSDNTETGSSDIGS
For B1, the binding result in the data set “negative-stain EM” was “binds”.
